Assay results taken from patent US5756291, “Aptamers specific for biomolecules and methods of making” (Gilead Sciences, Inc.).

B1: 15-mer propynyl-dU 9 (ssDNA)
DNA: GGTTGGTGTGGTTGG
modifications: Z 5-(1-propynyl)-2'-deoxyuridine [9 (Z = 5-(1-propynyl)-2'-deoxyuridine)]
B2: 15-mer propynyl-dU 3 (ssDNA)
DNA: GGTTGGTGTGGTTGG
modifications: Z 5-(1-propynyl)-2'-deoxyuridine [3 (Z = 5-(1-propynyl)-2'-deoxyuridine)]
B3: 15-mer propynyl-dU 4 (ssDNA)
DNA: GGTTGGTGTGGTTGG
modifications: Z 5-(1-propynyl)-2'-deoxyuridine [4 (Z = 5-(1-propynyl)-2'-deoxyuridine)]
B4: 15-mer dU7 dU9 (ssDNA)
DNA: GGTTGGUGUGGTTGG
modifications: dU at 7 and 9
B5: 15-mer dU3 dU12 (ssDNA)
DNA: GGUTGGTGTGGUTGG
modifications: dU at 3 and 12
B6: 15-mer pentynyl-U13 (ssDNA)
DNA: GGTTGGTGTGGTUGG
modifications: U13 is 5-(1-pentynyl)-2'-deoxyuridine
B7: 21-mer thrombin aptamer (ssDNA)
DNA: GGTTGGGCTGGTTGGGTTGGG
B8: 15-mer propynyl-dU 7 (ssDNA)
DNA: GGTTGGTGTGGTTGG
modifications: Z 5-(1-propynyl)-2'-deoxyuridine [7 (Z = 5-(1-propynyl)-2'-deoxyuridine)]
B9: pentynyl-dU clone 24 60-mer (ssDNA)
DNA: TAGAATACTCAAGCTTCGACGGTATATAGTATAGTATTGGCAGTTTGGATCCCCGGGTAC
modifications: X 5-pentynyl-dU; T in 3' constant region also 5-pentynyl-dU; T in 5' constant region unmodified [23,25,27,30,32,35,37,38 (X = 5-pentynyl-dU); 44,45,46,50,58 (3' constant region T = 5-pentynyl-dU)]
B10: 15-mer propynyl-dU 12 (ssDNA)
DNA: GGTTGGTGTGGTTGG
modifications: Z 5-(1-propynyl)-2'-deoxyuridine [12 (Z = 5-(1-propynyl)-2'-deoxyuridine)]

Experiments:
[1] = target: T1, thrombin (alpha, Factor IIa) (Homo sapiens, UniProt P00734;P00734 P00734:328-363,P00734:364-622); experiment: inhibition; 100 nM; no DNA 23 s
[2] = target: T1, thrombin (alpha, Factor IIa); experiment: inhibition
[3] = target: T1, thrombin (alpha, Factor IIa); experiment: filter
serum albumin = serum albumin (Homo sapiens, UniProt P02768 P02768:25-609); experiment: EMSA; 500 nM protein, 4 C
trypsin = trypsin (UniProt P00760 P00760:24-246); experiment: EMSA; 500 nM protein, 4 C
chymotrypsin = chymotrypsin (UniProt P00766;P00766;P00766 P00766:1-13,P00766:16-146,P00766:149-245); experiment: EMSA; 500 nM protein, 4 C
prothrombin = prothrombin (Homo sapiens, UniProt P00734 P00734:44-622); experiment: EMSA; 500 nM protein, 4 C
Factor X = Factor X (UniProt P00742;P00742 P00742:41-179,P00742:183-488); experiment: EMSA; 500 nM protein, 4 C; settings: tags: Haematologic Technologies HCXA-0060
Factor X, sequence (P00742 41-179, chain 1 of 2): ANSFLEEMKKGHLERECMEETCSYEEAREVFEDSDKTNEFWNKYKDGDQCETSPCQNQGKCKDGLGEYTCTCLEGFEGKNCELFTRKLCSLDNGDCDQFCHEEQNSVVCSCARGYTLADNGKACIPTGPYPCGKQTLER
Factor X, sequence (P00742 183-488, chain 2 of 2): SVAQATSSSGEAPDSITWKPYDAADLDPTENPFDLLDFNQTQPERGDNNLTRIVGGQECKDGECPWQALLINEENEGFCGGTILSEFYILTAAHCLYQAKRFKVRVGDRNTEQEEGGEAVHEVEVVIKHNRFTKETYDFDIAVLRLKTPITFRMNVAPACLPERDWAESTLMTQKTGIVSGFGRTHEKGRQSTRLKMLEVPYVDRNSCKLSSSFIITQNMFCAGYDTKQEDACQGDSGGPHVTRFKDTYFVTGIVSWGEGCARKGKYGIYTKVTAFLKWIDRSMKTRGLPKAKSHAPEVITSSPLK

trypsin, sequence (P00760 24-246, one chain of several): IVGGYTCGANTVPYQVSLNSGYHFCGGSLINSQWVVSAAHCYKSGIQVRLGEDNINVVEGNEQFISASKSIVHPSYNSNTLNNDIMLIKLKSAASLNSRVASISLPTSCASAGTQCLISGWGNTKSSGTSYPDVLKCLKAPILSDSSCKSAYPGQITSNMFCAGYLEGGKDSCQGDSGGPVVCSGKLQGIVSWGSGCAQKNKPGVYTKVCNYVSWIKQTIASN
serum albumin, sequence (P02768 25-609, one chain of several): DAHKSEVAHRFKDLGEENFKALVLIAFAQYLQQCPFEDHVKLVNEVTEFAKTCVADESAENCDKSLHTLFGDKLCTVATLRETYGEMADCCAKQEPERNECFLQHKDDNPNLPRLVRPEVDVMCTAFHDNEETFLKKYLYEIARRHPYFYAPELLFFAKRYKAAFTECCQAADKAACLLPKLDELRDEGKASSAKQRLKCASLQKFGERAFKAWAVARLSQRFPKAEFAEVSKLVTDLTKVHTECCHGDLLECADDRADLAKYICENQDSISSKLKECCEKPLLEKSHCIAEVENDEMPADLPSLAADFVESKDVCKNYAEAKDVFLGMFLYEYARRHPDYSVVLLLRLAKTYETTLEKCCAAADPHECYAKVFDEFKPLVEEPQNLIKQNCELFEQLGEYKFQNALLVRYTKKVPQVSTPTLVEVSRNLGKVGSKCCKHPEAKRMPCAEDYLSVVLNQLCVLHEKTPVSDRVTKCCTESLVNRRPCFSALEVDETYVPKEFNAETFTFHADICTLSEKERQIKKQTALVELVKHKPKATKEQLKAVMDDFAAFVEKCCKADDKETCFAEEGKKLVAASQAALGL

Binder | activity [1] | Ki [2] | further results
B1 | 120 s clot time | – | –
B2 | 138 s clot time | – | –
B3 | 187 s clot time | – | –
B4 | – | 15 nM | –
B5 | – | 80 nM | –
B6 | – | 20 nM | –
B7 | – | ~100 nM | Kd [3]: ~350 nM
B8 | 118 s clot time | – | –
B9 | – | – | Kd [3]: 400 nM; binding result (serum albumin): no binding; binding result (trypsin): no binding; binding result (chymotrypsin): no binding; binding result (prothrombin): no binding; binding result (Factor X): no binding
B10 | 129 s clot time | – | –
